B1: API-E2: bovine lactoferrin purified from raw, untreated milk by cation exchange chromatography and filtration according to Example 1 (protein)
chain: APRKNVRWCTISQPEWFKCRRWQWRMKKLGAPSITCVRRAFALECIRAIAEKKADAVTLDGGMVFEAGRDPYKLRPVAAEIYGTKESPQTHYYAVAVVKKGSNFQLDQLQGRKSCHTGLGRSAGWVIPMGILRPYLSWTESLEPLQGAVAKFFSASCVPCIDRQAYPNLCQLCKGEGENQCACSSREPYFGYSGAFKCLQDGAGDVAFVKETTVFENLPEKADRDQYELLCLNNSRAPVDAFKECHLAQVPSHAVVARSVDGKEDLIWKLLSKAQEKFGKNKSRSFQLFGSPPGQRDLLFKDSALGFLRIPSKVDSALYLGSRYLTTLKNLRETAEEVKARYTRVVWCAVGPEEQKKCQQWSQQSGQNVTCATASTTDDCIVLVLKGEADALNLDGGYIYTAGKCGLVPVLAENRKTSKYSSLDCVLRPTEGYLAVAVVKKANEGLTWNSLKDKKSCHTAVDRTAGWNIPMGLIVNQTGSCAFDEFFSQSCAPGRDPKSRLCALCAGDDQGLDKCVPNSKEKYYGYTGAFRCLAEDVGDVAFVKNDTVWENTNGESTADWAKNLNREDFRLLCLDGTRKPVTEAQSCHLAVAPNHAVVSRSDRAAHVKQVLLHQQALFGKNGKNCPDKFCLFKSETKNLLFNDNTECLAKLGGRPTYEEYLGTEYVTAIANLKKCSTSPLLEACAFLTR
B2: Lab-grade standard lactoferrin: commercially available Sigma lab-grade standard lactoferrin (L9507) (protein, UniProt P24627 20-708, looked up)
Lactotransferrin: APRKNVRWCTISQPEWFKCRRWQWRMKKLGAPSITCVRRAFALECIRAIAEKKADAVTLDGGMVFEAGRDPYKLRPVAAEIYGTKESPQTHYYAVAVVKKGSNFQLDQLQGRKSCHTGLGRSAGWIIPMGILRPYLSWTESLEPLQGAVAKFFSASCVPCIDRQAYPNLCQLCKGEGENQCACSSREPYFGYSGAFKCLQDGAGDVAFVKETTVFENLPEKADRDQYELLCLNNSRAPVDAFKECHLAQVPSHAVVARSVDGKEDLIWKLLSKAQEKFGKNKSRSFQLFGSPPGQRDLLFKDSALGFLRIPSKVDSALYLGSRYLTTLKNLRETAEEVKARYTRVVWCAVGPEEQKKCQQWSQQSGQNVTCATASTTDDCIVLVLKGEADALNLDGGYIYTAGKCGLVPVLAENRKSSKHSSLDCVLRPTEGYLAVAVVKKANEGLTWNSLKDKKSCHTAVDRTAGWNIPMGLIVNQTGSCAFDEFFSQSCAPGADPKSRLCALCAGDDQGLDKCVPNSKEKYYGYTGAFRCLAEDVGDVAFVKNDTVWENTNGESTADWAKNLNREDFRLLCLDGTRKPVTEAQSCHLAVAPNHAVVSRSDRAAHVKQVLLHQQALFGKNGKNCPDKFCLFKSETKNLLFNDNTECLAKLGGRPTYEEYLGTEYVTAIANLKKCSTSPLLEACAFLTR
B3: heat-treated API-E2 Lactoferrin: API-E2 Lactoferrin heated across a range of 50-100° C. (protein, UniProt P24627 20-708, looked up)
Lactotransferrin: APRKNVRWCTISQPEWFKCRRWQWRMKKLGAPSITCVRRAFALECIRAIAEKKADAVTLDGGMVFEAGRDPYKLRPVAAEIYGTKESPQTHYYAVAVVKKGSNFQLDQLQGRKSCHTGLGRSAGWIIPMGILRPYLSWTESLEPLQGAVAKFFSASCVPCIDRQAYPNLCQLCKGEGENQCACSSREPYFGYSGAFKCLQDGAGDVAFVKETTVFENLPEKADRDQYELLCLNNSRAPVDAFKECHLAQVPSHAVVARSVDGKEDLIWKLLSKAQEKFGKNKSRSFQLFGSPPGQRDLLFKDSALGFLRIPSKVDSALYLGSRYLTTLKNLRETAEEVKARYTRVVWCAVGPEEQKKCQQWSQQSGQNVTCATASTTDDCIVLVLKGEADALNLDGGYIYTAGKCGLVPVLAENRKSSKHSSLDCVLRPTEGYLAVAVVKKANEGLTWNSLKDKKSCHTAVDRTAGWNIPMGLIVNQTGSCAFDEFFSQSCAPGADPKSRLCALCAGDDQGLDKCVPNSKEKYYGYTGAFRCLAEDVGDVAFVKNDTVWENTNGESTADWAKNLNREDFRLLCLDGTRKPVTEAQSCHLAVAPNHAVVSRSDRAAHVKQVLLHQQALFGKNGKNCPDKFCLFKSETKNLLFNDNTECLAKLGGRPTYEEYLGTEYVTAIANLKKCSTSPLLEACAFLTR
modifications: heat-treated

Columns and labels:
[1] = Differential Scanning calorimetry (DSC) of lactoferrin samples; format: physicochemical
Experimental: Di[…] calorimetry (DSC) was used to assess the hololactoferrin and apolactoferrin forms through monitoring unfolding temperatures of lactoferrin samples using a nanoDSC (TA Instruments, Lindon, UT) according to standard DSC protocols known to those of skill in the art (e.g., see Hinz et al “M[…] OF RESULTS OBTAINED ON […] DI[…] CALORIMETRY”; herein incorporated by reference for all purposes.
API-E2 Lactoferrin (10 mg/mL), produced as described herein, was assessed by DSC. […] The lack of other peaks indicates the lack of contaminants and impurities and can assess API-E2 as ˜100%. […] Additionally, the lack of other peaks also indicated the purity of API-E2 Lactoferrin. […] The API-E2 hololactoferrin peak has a Tm of 88.38+/−0.8 C and a delta H of 632.7+/−7.2 kJ/mol. The hololactoferrin natively accounted for on average 8.74+/−1.39% of the total API-E2 lactoferrin with apolactoferrin accounting for the rest in the samples tested. However, the hololactoferrin percentage can be naturally variable. The API-E2 was calculated by this technique to contain virtually 100% pure lactoferrin.
The assay was also performed with heat-treated API-E2 Lactoferrin. API-E2 Lactoferrin was heated across a range of 50-100° C.

[2] = DSC iron binding capability with 1000× molar excess FeCl3; format: physicochemical; conditions: FeCl3 in 1000× molar excess
Experimental: The DSC assay was further used to assess Lactoferrin bioactivity, specifically the iron binding capability of the API-E2 Lactoferrin. Iron chloride (FeCl3) was added in 1000× molar excess to API-E2 Lactoferrin. In the presence of excess iron, the API-E2 lactoferrin will bind the iron to its open iron binding site.

[3] = test system: ECM of the buccal cells; experiment: ECM binding by immunofluorescence imaging in primary buccal cells; format: cell-based; conditions: 100 μg/mL, 1 hr at 37 C
Experimental: Primary buccal cells were next cultured according to a standard protocol (e.g., see Russo et al. Cytotechnology. 2016 October; 68(5): 2105-2114; herein incorporated by reference for all purposes). […] Immunofluorescence imaging was performed as previously described.

[4] = test system: Salivary bacteria (including Lactobacillus, Lactococcus, and Streptococcus mutans); experiment: Salivary bacteria acid production by pH testing; format: cell-based; conditions: in the presence of sucrose
Experimental: Salivary bacteria (including Lactobacillus, Lactococcus, and Streptococcus mutans) produce acid during growth. This acidification is strongly associated with tooth decay, particularly when it results in pH below 5.5, which is a clinically relevant threshold. A slurry of these bacteria were treated with sucrose to stimulate growth, as well as varying concentrations of API-E2 lactoferrin. Upon the addition of sucrose and API-E2 lactoferrin, the pH was adjusted to 7 through a titration and the change in pH was subsequently monitored over the next 6 hours.

[5] = test system: lactoperoxidase (LPO); experiment: Enzymatic assay for lactoperoxidase (LPO) activity; format: biochemical; conditions: colorimetric, turns blue in the presence of peroxidase activity
Source text: An enzymatic assay for lactoperoxidase (LPO) activity was developed utilizing a molecule which in the presence of peroxidase activity turns a blue color.

Row | Molecule | % of Total, apolactoferrin ([1]; native, no added iron) | available Apolactoferrin shifted to the Hololactoferrin form upon addition of excess iron [2] [%] | ECM association of Lactoferrin [3] | pH maintained for the entire 6 hour testing period ([4]; 1 mg/mL) | pH maintained for the entire 6 hour testing period ([4]; 10 mg/mL) | LPO enzymatic activity of the sample [5] | DSC peaks observed (apolactoferrin and hololactoferrin) ([1]; conditions as for API-E2) | apolactoferrin peak denaturation temperature ([1]; conditions as for API-E2) [°C] | hololactoferrin peak denaturation temperature ([1]; conditions as for API-E2) [°C]
1 | B1 | 91.26 +/− 1.39% ^ | 100 | strong binding along the ECM | above 5.5 | above 5.5 | neither detected by M/S or by the enzymatic assay |  |  | 
2 | B2 |  |  | only limited ECM association |  |  | does not result in a positive enzymatic reaction | significantly smaller than those observed for API-E2 and less defined | 55 | 85
3 | B3 |  |  |  |  |  |  | loss in both detectable peaks |  | 
